Experimental findings from article PMC7484162 are described below.

The Kd is the equilibrium constant for the complex coming apart.

The target in this experiment is CD33 (UniProt P20138).
Sequence of UniProt P20138 (P20138 18-364): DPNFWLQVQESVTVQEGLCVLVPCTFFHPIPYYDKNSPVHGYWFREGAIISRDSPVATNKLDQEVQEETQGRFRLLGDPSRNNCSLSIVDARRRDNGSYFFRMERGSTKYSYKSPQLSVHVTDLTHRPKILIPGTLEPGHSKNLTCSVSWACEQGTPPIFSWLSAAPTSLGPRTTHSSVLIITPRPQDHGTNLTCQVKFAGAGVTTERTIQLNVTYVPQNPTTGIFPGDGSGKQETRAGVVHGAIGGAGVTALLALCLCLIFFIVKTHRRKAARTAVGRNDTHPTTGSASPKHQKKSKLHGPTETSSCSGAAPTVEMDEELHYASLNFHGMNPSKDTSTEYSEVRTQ

For “cam16-wt15–33 TriKE (second-generation Tri-specific Killer Engager) (from UniProt P40933 49-162)”, the dissociation constant Kd stood at 25.6 nM.
